Laboratory results reported in patent publication EP0251446B1, “Non-human Carbonyl hydrolase mutants, DNA sequences and vectors encoding same and hosts transformed with said vectors” (GENENCOR INTERNATIONAL, INC., priority 1986, dated 1988).
Changes are numbered by the printed parent chain. Numbers in names are those of the source.

B1: B. amyloliquefaciens subtilisin variant S156 (Glu156 to Ser) (Bacillus amyloliquefaciens; E263S) (protein)
chain: AQSVPYGVSQIKAPALHSQGYTGSNVKVAVIDSGIDSSHPDLKVAGGASMVPSETNPFQDNNSHGTHVAGTVAALNNSIGVLGVAPSASLYAVKVLGADGSGQYSWIINGIEWAIANNMDVINMSLGGPSGSAALKAAVDKAVASGVVVVAAAGNSGTSGSSSTVGYPGKYPSVIAVGAVDSSNQRASFSSVGPELDVMAPGVSIQSTLPGNKYGAYNGTSMASPHVAGAAALILSKHPNWTNTQVRSSLENTTTKLGDSFYYGKGLINVQAAAQ
notes: at various amino acid residues within the mature form of the subtilisin molecule; made in house; host or cells: Bacillus subtilis BG2036
B2: B. amyloliquefaciens subtilisin variant Q156 (Glu156 to Gln) (Bacillus amyloliquefaciens; E263Q) (protein)
chain: B1 chain with S156Q
notes: as for B1

Experiments:
Format in all cases: biochemical, B. amyloliquefaciens
[1] = substrate: C[C@H](NC(=O)CCC(=O)O)C(=O)N[C@@H](C)C(=O)N1CCC[C@H]1C(=O)N[C@@H](CCCCN)C(=O)Nc1ccc([N+](=O)[O-])cc1; assay: Kinetics of p-nitroanilide substrate hydrolysis, S156; settings: other: Table XIV, 156 Ser / 166 Gly; value in parentheses; synthetic substrate with label as P-1 amino acid; 37.0 °C
Source text: (§1) Wild-type subtilisin was purified from B. subtilis culture supernatants expressing the B. amyloliquefaciens subtilisin gene (Wells, J.A., et al. (1983) Nucleic Acids Res. 11, 7911-7925) as previously described (Estell, D.A., et al. (1985) J. Biol. Chem. 260, 6518-6521). Details of the synthesis of tetrapeptide substrates having the form succinyl-L-AlaL-AlaL-ProL-[X]-p-nitroanilide (where X is the P1 amino acid) are described by DelMar, E.G., et al. (1979) Anal. Biochem. 99, 316-320. Kinetic parameters, Km(M) and kcat-(s-^1) were measured using a modified progress curve analysis (Estell, D.A., et al. (1985) J. Biol. Chem. 260, 6518-6521). Briefly, plots of rate versus product concentration were fit to the differential form of the rate equation using a non-linear regression algorithm. Errors in kcat and Km for all values reported are less than five percent. The various substrates in Table VIII are ranged in order of decreasing hydrophobicity. Nozaki, Y. (1971), J. Biol. Chem. 246, 2211-2217; Tanford C. (1978) Science 200, 1012).
(§2) Construction of position 156 single mutants were prepared by ligation of the three fragments (1-3) indicated at the bottom of Figure 21. Fragment 3, containing the carboxy-terminal portion of the subtilisin gene including the wild type position 166 codon, was isolated as a 610 bp Sacl-BamHI fragment. Fragment 1 contained the vector sequences, as well as the amino-terminal sequences of the subtilisin gene through codon 151. To produce fragment 1, a unique Kpnl site at codon 152 was introduced into the wild type subtilisin sequence from pS4.5. Site-directed mutagenesis in M13 employed a primer having the sequence 5'-TA-GTC-GTT-GCG-GTA-CCC-GGT-AAC-GAA-3' to produce the mutation. Enrichment for the mutant sequence was accomplished by restriction with Kpnl, purification and self ligation. The mutant sequence containing the Kpnl site was confirmed by direct plasmid sequencing to give pV152. pV152 (-1 µg) was digested with Kpnl and treated with 2 units of DNA polymerase I large fragment (Klenow fragment from Boeringer-Mannheim) plus 50 µM deoxynucleotide triphosphates at 37°C for 30 min. This created a blunt end that terminated with codon 151. The DNA was extracted with 1:1 volumes phenol and CHC13 and DNA in the aqueous phase was precipitated by addition of 0.1 volumes 5M ammonium acetate and two volumes ethanol. After centrifugation and washing the DNA pellet with 70% ethanol, the DNA was lyophilized. DNA was digested with BamHl and the 4.6kb piece (fragment 1) was purified by acrylamide gel electrophoresis followed by electroelution. […] The top strand was synthesized to contain a glutamine codon, and the complementary bottom strand coded for serine at 156. Ligation of heterophosphorylated cassettes leads to a large and favorable bias for the phosphorylated over the non-phosphorylated oligonucleotide sequence in the final segrated plasmid product. Therefore, to obtain Q156 the top strand was phosphorylated, and annealed to the non-phosphorylated bottom strand prior to ligation. Similarly, to obtain S156 the bottom strand was phosphorylated and annealed to the non-phosphorylated top strand. Mutant sequences were isolated after ligation and transformation, and were confirmed by restriction analysis and DNA sequencing as before. To express variant subtilisins, plasmids were transformed into a subtilisin-neutral protease deletion mutant of B. subtilis, BG2036, as previously described. Cultures were fermented in shake flasks for 24 h at 37 ° C in LB media containing […] chloramphenicol and subtilisin was purified from culture supernatants as described. Purity of subtilisin was greater than 95% as judged by SDS PAGE.
(§3) These mutant plasmids designated pS156 and pQ156 and mutant subtilisins designated S156 and Q156 were analyzed with the above synthetic substrates where P-1 comprised the amino acids Glu, Gln, Met and Lys. The results of this analyses are presented in Example 9. […]

[2] = substrate: C[C@H](NC(=O)CCC(=O)O)C(=O)N[C@@H](C)C(=O)N1CCC[C@H]1C(=O)N[C@@H](CCC(N)=O)C(=O)Nc1ccc([N+](=O)[O-])cc1; assay: as above; settings: other: Table XIV, 156 Ser / 166 Gly; value in parentheses; synthetic substrate with label as P-1 amino acid; 37.0 °C
Source text: as §1, §2, §3

[3] = substrate: CSCC[C@H](NC(=O)[C@@H]1CCCN1C(=O)[C@H](C)NC(=O)[C@H](C)NC(=O)CCC(=O)O)C(=O)Nc1ccc([N+](=O)[O-])cc1; assay: as above; settings: other: Table XIV, 156 Ser / 166 Gly; value in parentheses; synthetic substrate with label as P-1 amino acid; 37.0 °C
Source text: as §1, §2, §3

[4] = substrate: C[C@H](NC(=O)CCC(=O)O)C(=O)N[C@@H](C)C(=O)N1CCC[C@H]1C(=O)N[C@@H](Cc1ccccc1)C(=O)Nc1ccc([N+](=O)[O-])cc1; assay: as above; settings: other: Table XIII, S156; synthetic substrate with label as P-1 residue; 37.0 °C
Source text: as §1, §2, §3

[5] = substrate: C[C@H](NC(=O)CCC(=O)O)C(=O)N[C@@H](C)C(=O)N1CCC[C@H]1C(=O)N[C@@H](CCC(=O)O)C(=O)Nc1ccc([N+](=O)[O-])cc1; assay: as above; settings: 37.0 °C
Source text: as §1, §2, §3

[6] = substrate: C[C@H](NC(=O)CCC(=O)O)C(=O)N[C@@H](C)C(=O)N1CCC[C@H]1C(=O)N[C@@H](CCCCN)C(=O)Nc1ccc([N+](=O)[O-])cc1; assay: Kinetics of p-nitroanilide substrate hydrolysis, Q156; settings: other: Table XIV, 156 Gln / 166 Gly; value in parentheses; synthetic substrate with label as P-1 amino acid; 37.0 °C
Source text: as §1, §2, §3

[7] = substrate: C[C@H](NC(=O)CCC(=O)O)C(=O)N[C@@H](C)C(=O)N1CCC[C@H]1C(=O)N[C@@H](CCC(N)=O)C(=O)Nc1ccc([N+](=O)[O-])cc1; assay: as above; settings: other: Table XIV, 156 Gln / 166 Gly; value in parentheses; synthetic substrate with label as P-1 amino acid; 37.0 °C
Source text: as §1, §2, §3

[8] = substrate: CSCC[C@H](NC(=O)[C@@H]1CCCN1C(=O)[C@H](C)NC(=O)[C@H](C)NC(=O)CCC(=O)O)C(=O)Nc1ccc([N+](=O)[O-])cc1; assay: as above; settings: other: Table XIV, 156 Gln / 166 Gly; value in parentheses; synthetic substrate with label as P-1 amino acid; 37.0 °C
Source text: as §1, §2, §3

[9] = substrate: C[C@H](NC(=O)CCC(=O)O)C(=O)N[C@@H](C)C(=O)N1CCC[C@H]1C(=O)N[C@@H](Cc1ccccc1)C(=O)Nc1ccc([N+](=O)[O-])cc1; assay: as above; settings: other: Table XIII, enzyme E156; synthetic substrate with label as P-1 residue; 37.0 °C
Source text: as §1, §2, §3

[10] = substrate: C[C@H](NC(=O)CCC(=O)O)C(=O)N[C@@H](C)C(=O)N1CCC[C@H]1C(=O)N[C@@H](CCC(=O)O)C(=O)Nc1ccc([N+](=O)[O-])cc1; assay: as above; settings: 37.0 °C
Source text: as §1, §2, §3

[11] = other: Table XIII, S156, synthetic substrate with label as P-1 residue
[12] = other: Table XIII, enzyme E156, synthetic substrate with label as P-1 residue

Row | Protein | Km [1] [µM] | Km [2] [µM] | Km [3] [µM] | Km [4] [µM] | kcat [4] [s-^1] | kcat/Km [4] [M⁻¹ s⁻¹] | Km [5, 11] [µM] | kcat [5, 11] [s-^1] | Km ([5]; other: Table XIV, 156 Ser / 166 Gly, value in parentheses, synthetic substrate with label as P-1 amino acid) [µM] | Km [6] [µM] | Km [7] [µM] | Km [8] [µM] | Km [9] [µM] | kcat [9] [s-^1] | kcat/Km [9] [M⁻¹ s⁻¹] | Km [10, 12] [µM] | kcat [10, 12] [s-^1] | kcat/Km [10, 12] [M⁻¹ s⁻¹] | Km ([10]; other: Table XIV, 156 Gln / 166 Gly, value in parentheses, synthetic substrate with label as P-1 amino acid) [µM]
1 | B1 | 1820 | 209 | 28.2 | 47 | 34.00 | 730000 | 1800 | 0.40 | 1860 |  |  |  |  |  |  |  |  |  | 
2 | B2 |  |  |  |  |  |  |  |  |  | 1510 | 155 | 24.5 | 45 | 48.00 | 1.1e+06 | 3300 | 0.90 | 270 | 3310
